Assay results: patent publication US12240882B2, “Fusion proteins comprising an engineered knottin peptide and uses thereof” (The Board of Trustees of the Leland Stanford Junior …, priority 2010, dated 2025)
Entries after “also recorded” stand apart in the source; their conditions may differ.

T1: Gas6 (Homo sapiens, UniProt Q14393)
T1 sequence (Q14393 31-678): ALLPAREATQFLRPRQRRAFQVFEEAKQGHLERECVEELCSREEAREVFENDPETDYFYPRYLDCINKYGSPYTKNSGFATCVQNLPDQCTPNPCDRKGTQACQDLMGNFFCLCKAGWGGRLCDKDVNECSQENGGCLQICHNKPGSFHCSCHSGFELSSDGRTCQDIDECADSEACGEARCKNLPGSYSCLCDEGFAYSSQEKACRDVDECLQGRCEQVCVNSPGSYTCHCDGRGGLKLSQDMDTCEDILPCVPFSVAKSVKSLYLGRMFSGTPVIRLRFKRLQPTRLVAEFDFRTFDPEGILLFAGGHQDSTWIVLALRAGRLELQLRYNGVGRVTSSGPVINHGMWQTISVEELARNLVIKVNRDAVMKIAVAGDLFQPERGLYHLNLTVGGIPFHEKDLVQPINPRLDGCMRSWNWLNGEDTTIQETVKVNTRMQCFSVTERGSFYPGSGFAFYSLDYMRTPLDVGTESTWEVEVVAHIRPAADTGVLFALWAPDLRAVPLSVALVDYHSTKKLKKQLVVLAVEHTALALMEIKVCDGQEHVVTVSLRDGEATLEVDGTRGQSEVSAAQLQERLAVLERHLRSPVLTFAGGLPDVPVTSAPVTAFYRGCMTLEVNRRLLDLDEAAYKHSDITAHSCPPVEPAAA


Legend:
[1] = circular dichroism
Gas6 [2] = biological target: T1, Gas6; assay: Yeast display binding of EETI 2.5D-Axl fusion to Gas6
αvβ3 integrin [3] = biological target: T2, αvβ3 integrin (Homo sapiens, UniProt P05106+P06756); assay: cRGD competition of EETI 2.5D-Axl binding to K562-αvβ3 cells
T2 sequence (P06756 31-889 limits assumed): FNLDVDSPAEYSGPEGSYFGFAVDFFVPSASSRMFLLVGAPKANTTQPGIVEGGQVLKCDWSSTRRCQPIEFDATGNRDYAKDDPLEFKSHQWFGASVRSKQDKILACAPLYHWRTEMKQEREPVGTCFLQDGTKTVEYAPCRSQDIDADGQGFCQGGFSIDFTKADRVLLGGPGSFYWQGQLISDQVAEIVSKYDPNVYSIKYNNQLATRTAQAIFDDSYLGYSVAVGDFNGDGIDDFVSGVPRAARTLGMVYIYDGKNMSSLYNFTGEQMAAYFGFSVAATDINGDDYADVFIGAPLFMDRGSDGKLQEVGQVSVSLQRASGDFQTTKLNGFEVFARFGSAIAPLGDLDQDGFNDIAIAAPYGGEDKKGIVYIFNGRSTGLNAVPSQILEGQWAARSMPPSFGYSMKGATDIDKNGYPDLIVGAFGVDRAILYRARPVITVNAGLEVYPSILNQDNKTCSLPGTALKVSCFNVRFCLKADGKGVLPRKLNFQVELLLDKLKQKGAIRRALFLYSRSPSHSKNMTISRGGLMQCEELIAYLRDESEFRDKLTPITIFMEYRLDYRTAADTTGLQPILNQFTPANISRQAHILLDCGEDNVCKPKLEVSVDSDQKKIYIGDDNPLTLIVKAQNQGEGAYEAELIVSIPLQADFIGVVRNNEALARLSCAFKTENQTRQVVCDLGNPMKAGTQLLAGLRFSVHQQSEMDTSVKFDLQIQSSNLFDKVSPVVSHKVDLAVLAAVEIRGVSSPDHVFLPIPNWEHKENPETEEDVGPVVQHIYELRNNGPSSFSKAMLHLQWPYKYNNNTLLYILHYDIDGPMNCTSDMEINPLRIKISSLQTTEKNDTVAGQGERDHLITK
T2 sequence (P06756 891-1048 partner limits assumed): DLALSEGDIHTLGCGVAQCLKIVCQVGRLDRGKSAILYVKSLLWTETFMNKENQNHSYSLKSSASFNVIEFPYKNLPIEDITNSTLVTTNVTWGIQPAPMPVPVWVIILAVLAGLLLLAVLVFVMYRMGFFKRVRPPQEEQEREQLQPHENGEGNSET
T2 sequence (P05106 27-788): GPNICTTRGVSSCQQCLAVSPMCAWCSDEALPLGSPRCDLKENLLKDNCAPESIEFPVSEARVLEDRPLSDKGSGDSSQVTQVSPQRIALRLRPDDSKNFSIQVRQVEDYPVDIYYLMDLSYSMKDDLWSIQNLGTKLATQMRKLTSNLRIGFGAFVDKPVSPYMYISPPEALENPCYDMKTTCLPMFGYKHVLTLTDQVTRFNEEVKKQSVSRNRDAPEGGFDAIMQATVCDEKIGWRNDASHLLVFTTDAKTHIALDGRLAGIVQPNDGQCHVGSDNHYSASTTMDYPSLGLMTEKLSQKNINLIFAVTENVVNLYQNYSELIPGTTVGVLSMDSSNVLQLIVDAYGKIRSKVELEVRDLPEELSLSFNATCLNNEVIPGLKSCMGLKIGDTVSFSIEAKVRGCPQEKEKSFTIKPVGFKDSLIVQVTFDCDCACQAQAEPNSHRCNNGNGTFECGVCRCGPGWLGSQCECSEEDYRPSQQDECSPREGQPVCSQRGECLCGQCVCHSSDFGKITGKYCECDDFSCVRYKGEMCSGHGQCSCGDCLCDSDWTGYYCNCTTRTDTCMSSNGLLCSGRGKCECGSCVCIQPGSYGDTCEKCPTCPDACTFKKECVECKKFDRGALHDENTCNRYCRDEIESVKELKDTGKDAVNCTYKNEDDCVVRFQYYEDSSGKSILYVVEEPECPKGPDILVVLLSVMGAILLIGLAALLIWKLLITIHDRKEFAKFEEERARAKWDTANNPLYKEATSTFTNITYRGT

αvβ3 integrin [4] = biological target: T2, αvβ3 integrin; assay: Binding of soluble EETI 2.5D-Axl to K562-αvβ3 cells (flow cytometry); details: soluble protein from Pichia pastoris
Gas6 [5] = biological target: T1, Gas6; assay: Yeast display binding to Gas6 in presence of saturating αvβ3 integrin; details: 20 or 100 nM Gas6 with 200 nM αvβ3 integrin
αvβ3 integrin [6] = biological target: T2, αvβ3 integrin; assay: Yeast display binding to αvβ3 integrin in presence of saturating Gas6; details: 100 or 200 nM αvβ3 integrin with 100 nM Gas6
αvβ3 integrin [7] = biological target: T2, αvβ3 integrin; assay: Yeast display binding of EETI 2.5D-Axl fusion to soluble αvβ3 integrin; details: 20, 50 or 100 nM αvβ3 integrin
PC3 cells = assay: Inhibition of PC3 cell adhesion to vitronectin by knottin-Fc proteins; assay type: cell-based; details: knottin-Fc fusions, FIG. 10
Method: Negative control is an irrelevant protein.
In another tumor model, the ability of the knottin-Fc proteins to inhibit PC3 cell adhesion to the extracellular matrix (ECM) protein vitronectin was analyzed. […] As the inhibition of integrin-ECM adhesion induces caspase-mediated apoptosis, this biological mechanism will be explored in future studies.

[8] = Gel filtration chromatography of knottin-Fc; assay type: physicochemical
sk0v3 cells = assay: Binding of knottin-Fc proteins to sk0v3 cells; details: measured against wild-type EETII-Fc
Method: The binding of the knottin-Fc proteins to tumor cell lines were then measured.

Molecule	Tm (° C.) [1]	melting temperature (Tm) [1]	binding to Gas6 (Gas6 [2]; 0.2, 2 or 20 nM Gas6)	binding to Gas6 (Gas6 [2]; 0.2, 2 or 20 nM Gas6, listed as 2.5D-Axl)	binding of EETI 2.5D-Axl to K562-αvβ3 cells with molar excess of cRGD (αvβ3 integrin [3])	equilibrium binding to cells transfected to overexpress αvβ3 integrin (αvβ3 integrin [4])	binding to Gas6 in presence of saturating αvβ3 integrin (Gas6 [5])	binding to Gas6 in presence of saturating αvβ3 integrin (Gas6 [5]; listed as 2.5D-Axl)	binding to αvβ3 integrin in presence of saturating Gas6 (αvβ3 integrin [6])	binding to αvβ3 integrin in presence of saturating Gas6 (αvβ3 integrin [6]; listed as 2.5D-Axl)	binding to soluble αvβ3 integrin (αvβ3 integrin [7])	binding to soluble αvβ3 integrin (αvβ3 integrin [7]; listed as 2.5D-Axl)	inhibition of PC3 cell adhesion to vitronectin (PC3 cells)	tendency to aggregate [8]	affinity to sk0v3 cells (sk0v3 cells)
EETI 2.5D-Axl: EETI 2.5D directly fused to N-terminus of wt Axl Ig1 (amino acids 21-132), SEQ ID NO: 84 (protein) GCPQGRGDWAPTSCSQDSDCLAGCVCGPNGFCGSRGTQAEESPFVGNPGNITGARGLTGTLRCQLQVQGEPPEVHWLRDGQILELADSTQTQVPLGEDEQDDWIVVSQLRITSLQLSDTGQYQCLVFLGHQTFVSQPGYVGLEGLP	52 ± 0.7 °C	~52 °C	levels comparable to the mono-specific proteins; also recorded: affinities similar to its corresponding mono-specific components	maintained wild-type Axl's affinity	binding specifically to αvβ3 integrin	consistent with that previously determined for 2.5D	not affected; also recorded: maintains affinity to Gas6	the same as when they were measured individually	not affected; also recorded: is not lost	the same as when they were measured individually	levels comparable to the mono-specific proteins; also recorded: affinities similar to its corresponding mono-specific components	matched that of 2.5D			
2.5D-Fc: EETI-based knottin 2.5D fused to Fc domain of mouse Ig2a (protein) GCPQGRGDWAPTSCKQDSDCRAGCVCGPNGFCGEPRGPTIKPCPPCKCPAPNLLGGPSVFIFPPKIKDVLMISLSPIVTCVVVDVSEDDPDVQISWFVNNVEVHTAQTQTHREDYNSTLRVVSALPIQHQDWMSGKEFKCKVNNKDLPAPIERTISKPKGSVRAPQVYVLPPPEEEMTKKQVTLTCMVTDFMPEDIYVEWTNNGKTELNYKNTEPVLDSDGSYFMYSKLRVEKKNWVERNSYSCSVVHEGLHNHHTTKSFSRTPGK													low nanomolar range	no tendency to aggregate	
2.5F-Fc: EETI-based knottin 2.5F fused to Fc domain of mouse Ig2a (protein) GCPRPRGDNPPLTCKQDSDCLAGCVCGPNGFCGEPRGPTIKPCPPCKCPAPNLLGGPSVFIFPPKIKDVLMISLSPIVTCVVVDVSEDDPDVQISWFVNNVEVHTAQTQTHREDYNSTLRVVSALPIQHQDWMSGKEFKCKVNNKDLPAPIERTISKPKGSVRAPQVYVLPPPEEEMTKKQVTLTCMVTDFMPEDIYVEWTNNGKTELNYKNTEPVLDSDGSYFMYSKLRVEKKNWVERNSYSCSVVHEGLHNHHTTKSFSRTPGK													low nanomolar range		greater affinity
